Positions of bridges follow the written chain, without caps; N, C: chain ends. Chains are numbered I, II in the order given. No end group written: not given here.
Molecular target: human RXFP2 (human), Q8WXD0
Test: cell-based or functional assay

human RXFP2 (human), Q8WXD0, sequence (Q8WXD0 whole entry): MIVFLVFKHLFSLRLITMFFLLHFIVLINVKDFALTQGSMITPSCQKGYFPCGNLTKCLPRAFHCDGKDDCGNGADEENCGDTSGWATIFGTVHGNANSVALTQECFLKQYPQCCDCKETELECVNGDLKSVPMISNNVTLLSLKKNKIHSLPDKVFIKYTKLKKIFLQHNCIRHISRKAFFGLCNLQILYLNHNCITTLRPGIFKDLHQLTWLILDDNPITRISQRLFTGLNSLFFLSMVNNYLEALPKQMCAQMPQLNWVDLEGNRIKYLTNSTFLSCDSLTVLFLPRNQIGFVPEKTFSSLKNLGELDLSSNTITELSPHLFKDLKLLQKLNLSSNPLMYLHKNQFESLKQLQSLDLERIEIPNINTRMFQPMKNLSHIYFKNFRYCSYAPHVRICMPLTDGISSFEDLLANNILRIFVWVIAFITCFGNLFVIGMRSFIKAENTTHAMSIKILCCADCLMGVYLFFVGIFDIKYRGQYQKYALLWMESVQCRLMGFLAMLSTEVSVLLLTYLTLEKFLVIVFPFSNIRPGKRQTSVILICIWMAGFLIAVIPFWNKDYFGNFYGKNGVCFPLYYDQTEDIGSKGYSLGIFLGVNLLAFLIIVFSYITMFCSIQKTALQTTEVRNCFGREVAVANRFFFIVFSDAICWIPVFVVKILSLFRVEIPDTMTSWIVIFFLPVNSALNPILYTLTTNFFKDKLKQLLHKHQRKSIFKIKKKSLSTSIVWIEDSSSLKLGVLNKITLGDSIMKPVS

B1: RLX-A-AQ1-20KPEG (ligand)
chain 1: XLYSALANKCCHVGCTKRSLARFC
chain 2: ASWMEEVIKLCGRELVRAQIAICGMSTWS
modifications: here or on the partner: pACF (para-acetylphenylalanine) at position 1 of the A chain, linked to a 20 kDA PEG via an oxime linkage
Which Maximal cAMP stimulation by RLX-A-AQ1-20KPEG compared to WT-RLX (percent difference), AVG, hRXFP2 does the source give for B1 here?
The Maximal cAMP stimulation by RLX-A-AQ1-20KPEG compared to WT-RLX (percent difference), AVG, hRXFP2 was 99%.

And the Potency Ratio (RLX-A-AQ1-20KPEG/WT-RLX), cAMP assay, human RXFP2/CHO-K1 cells?
Its Potency Ratio (RLX-A-AQ1-20KPEG/WT-RLX), cAMP assay, human RXFP2/CHO-K1 cells is 32 fold.

What about the RLX-A-AQ1-20KPEG Potency Ratio (hRXFP 1-1.0), cAMP assay of the same binder?
The RLX-A-AQ1-20KPEG Potency Ratio (hRXFP 1-1.0), cAMP assay was 54.

And the cAMP Assay EC50 (nM), human RXFP2/CHO-K1 cells?
Its cAMP Assay EC50 (nM), human RXFP2/CHO-K1 cells is 174 nM.

B2: wild-type relaxin (human relaxin 2) (ligand)
chain 1: QLYSALANKCCHVGCTKRSLARFC
chain 2: DSWMEEVIKLCGRELVRAQIAICGMSTWS
modifications: disulfide I:10-I:15, I:11-II:11, I:24-II:23
B2 was tested. Which fold less potent than INSL3, cAMP assay, human RXFP2/CHO-K1 cells did it give?
Its fold less potent than INSL3, cAMP assay, human RXFP2/CHO-K1 cells is 10 fold.
